In paper PMC9320857, “Protocellular CRISPR/Cas‐Based Diffusive Communication Using Transcriptional RNA Signaling”:

Target: T7 RNA polymerase (UniProt P00573 1-883)
Experiment: confocal localization to immobilized DNA; 500 nM Cy5-T7 RNAP, 0.5 h, 37 C; target in proteinosomes; reaction buffer (composition not in the material; NEB buffer 3.1 mentioned), 37 C; DNA localization in 10 mM Tris pH 8.0, 12 mM Mg, 0.1% Tween 20
Conditions: protein: commercial; tags: Cy5 label; label: Cy3 5' on NTMG; biotin on TMG; NTMG 5' overhang 27 nt (incomplete T7 promoter)

Sequence of T7 RNA polymerase (P00573 whole entry): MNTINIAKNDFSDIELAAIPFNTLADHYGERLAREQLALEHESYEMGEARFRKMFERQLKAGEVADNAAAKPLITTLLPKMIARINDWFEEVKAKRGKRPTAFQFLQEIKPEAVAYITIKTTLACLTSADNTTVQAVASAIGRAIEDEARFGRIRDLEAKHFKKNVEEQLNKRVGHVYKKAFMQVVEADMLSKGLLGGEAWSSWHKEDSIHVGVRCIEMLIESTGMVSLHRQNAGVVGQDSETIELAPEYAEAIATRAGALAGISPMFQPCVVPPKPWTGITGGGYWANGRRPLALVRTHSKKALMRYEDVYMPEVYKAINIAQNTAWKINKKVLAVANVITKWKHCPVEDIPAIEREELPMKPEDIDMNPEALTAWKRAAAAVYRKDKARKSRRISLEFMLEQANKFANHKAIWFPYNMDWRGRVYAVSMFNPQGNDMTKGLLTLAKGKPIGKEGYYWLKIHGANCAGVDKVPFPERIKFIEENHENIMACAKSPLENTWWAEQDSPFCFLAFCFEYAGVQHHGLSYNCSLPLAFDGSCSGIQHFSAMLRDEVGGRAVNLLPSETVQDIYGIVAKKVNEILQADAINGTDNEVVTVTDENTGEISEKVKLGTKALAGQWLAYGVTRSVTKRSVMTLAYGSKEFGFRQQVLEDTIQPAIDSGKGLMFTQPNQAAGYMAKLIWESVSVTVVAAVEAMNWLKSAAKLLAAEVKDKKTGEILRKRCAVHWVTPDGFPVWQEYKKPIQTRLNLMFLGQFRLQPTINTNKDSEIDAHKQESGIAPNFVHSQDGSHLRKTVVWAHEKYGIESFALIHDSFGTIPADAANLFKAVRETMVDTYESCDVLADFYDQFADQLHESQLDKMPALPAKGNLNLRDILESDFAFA

B1: MG genelet TMG/NTMG (dsDNA)
DNA 1: CATTAGTGTCGTTCGTTCACAGTAATACGACTCACTATAGGGATCCCGACTGGCGAGAGCCAGGTAACGAATGGATC
DNA 2: GATCCATTCGTTACCTGGCTCTCGCCAGTCGGGATCCCTATAGTGAGTCG
binding result: binds
